Reference: article PMC10714992, “A monoclonal antibody targeting spore wall protein 1 inhibits the proliferation of Nosema bombycis in Bombyx mori” (Microbiology Spectrum, 2023)

B1: recombinant scFvG9 from the baculovirus expression system (scFv, V domains shown)
VH: QVQLQQSGAELARPGASVKMSCKASGYTFTGFSIHWVKQRPGQGLEWIGYINPSSAYTKYNQNFKDKATLTADKSSSTAYMQLNSLTSDDSAVYYCAYRYDVGDYWGQGTSVTVSS
VL: DIVITQSPSSLAVSAGEKVTLSCKSSQSLFNSRTRKNYLAWYQQKPGQSPKLLIYWASTRESGVPDRFTGSGSGTDFTLTISSVQAEDLAVYYCKQSYYLWTFGGGAKLEIK
notes: variable domain of the heavy chain of m1; (G4S)3 linker; variable domain of the light chain of m1; The construct contains a signal peptide and a 6xHis tag; Detected in the ELISA by an anti-6xHis antibody; also called rscFvG9; pFast-rscFvG9; source: Bac-to-Bac baculovirus system, insect cells (Sf-900 III / Sf9), serum-free medium, purified (Ni-NTA); not shown: His6, C-terminal, kept
B2: recombinant G9 intact antibody (rG9H + rG9L) from the baculovirus expression system (antibody, V domains shown)
VH: B1 VH
VL: B1 VL
notes: as the heavy chain of m1 (rG9H); as the light chain of m1 (rG9L); rG9H contains a signal peptide at the 5' end and is driven by the polyhedrin promoter; rG9L is driven by the p10 promoter; Detected in the ELISA by an anti-6xHis antibody; also called pFast-rG9; source: Bac-to-Bac baculovirus system, insect cells (Sf-900 III / Sf9), serum-free medium, purified (Ni-NTA); not shown: His6, C-terminal, …
B3: G9 intact antibody expressed in G9-Neo transgenic BmE cells (antibody, V domains shown)
VH: B1 VH
VL: B1 VL
notes: as the heavy chain of m1 (G9H); as the light chain of m1 (G9L); G9H was amplified with a signal peptide at the 5' end and a 6xHis tag at the 3' end; The light chain was made 'similarly', so it is not clear whether it also carries them; IE1 promoter; also called G9H + G9L
B4: scFvG9 expressed in scFvG9-Neo transgenic BmE cells (scFv, V domains shown)
VH: B1 VH
VL: B1 VL
notes: variable domain of the heavy chain of m1; (G4S)3 linker; variable domain of the light chain of m1; The construct encodes an N-terminal secretion signal peptide from the CL40 anti-EBV/HHV-4 gHgL immunoglobulin heavy chain
B5: NscFvG9 expressed in NscFvG9-Neo transgenic BmE cells (scFv, V domains shown)
VH: B1 VH
VL: B1 VL
notes: variable domain of the heavy chain of m1; (G4S)3 linker; variable domain of the light chain of m1; scFvG9 with the signal peptide of VH removed, expressed intracellularly; also called scFv without the secretory signal peptide
B6: G9 intact antibody expressed in G9 transgenic silkworm (antibody, V domains shown)
VH: B1 VH
VL: B1 VL
notes: as the heavy chain of m1 (G9H); as the light chain of m1 (G9L); Same IE1-G9H-SV40 + IE1-G9L-SV40 cassettes as m2, in pBac[A3-EGFP]; G9H has a signal peptide at the 5' end; It is not clear whether the light chain also carries a signal peptide and His tag; source: transgenic silkworm (Bombyx mori), hemolymph and cell lysate
B7: scFvG9 expressed in scFvG9 transgenic silkworm (scFv, V domains shown)
VH: B1 VH
VL: B1 VL
notes: variable domain of the heavy chain of m1; (G4S)3 linker; variable domain of the light chain of m1; Same IE1-scFvG9-SV40 cassette as m3, which encodes a secretion signal peptide; also called scFv9; source: transgenic silkworm (Bombyx mori), hemolymph
B8: NscFvG9 expressed in NscFvG9 transgenic silkworm (scFv, V domains shown)
VH: B1 VH
VL: B1 VL
notes: variable domain of the heavy chain of m1; (G4S)3 linker; variable domain of the light chain of m1; Same IE1-NscFvG9-SV40 cassette as m4 (no signal peptide), in pBac[3xP3-EGFP]; also called NscFv9; source: transgenic silkworm (Bombyx mori), cell lysate

Columns and labels:
[1] = biological target: T1, recombinant GST-SWP1 fusion protein (Nosema bombycis CVCC 102059, UniProt B3STN5); assay: ELISA; indirect ELISA: plates coated with recombinant GST-SWP1 (0.3 ug/well) overnight at 4 C, recombinant 6xHis-tagged antibodies from baculovirus added for 1 h at room temperature, detected with anti-6xHis rabbit mAb; titer; settings: both partners purified
T1 construct: spore wall protein 1 (SWP1) of Nosema bombycis, gene cloned by PCR into pGEX-4T-1 (BamH I / XhoI); also called rGST-SWP1; source: E. coli Rosetta, pGEX-4T-1, purified (Glutathione Sepharose)

[2] = biological target: T2, Nosema bombycis spore wall protein 1, native (Nosema bombycis (strain CQ1 / CVCC …, UniProt B3STN5)); assay: Western blot; alkali-soluble germination (spore) proteins separated by SDS-PAGE on PVDF; culture supernatant or lysate of G9-Neo, scFvG9-Neo and NscFvG9-Neo BmE cells used as primary antibody; settings: partners not purified
T2 construct: spore wall protein 1 (SWP1) of Nosema bombycis, gene locus NBO_552g0005; also called SWP1; native SWP1

[3] = biological target: T3, prokaryotic-expressed recombinant SWP1 (Nosema bombycis CVCC 102059, UniProt B3STN5); assay: Western blot; rSWP1 separated by SDS-PAGE; hemolymph or cell lysate of transgenic silkworms used as primary antibody; settings: one partner purified
T3 construct: spore wall protein 1 (SWP1) of Nosema bombycis, gene cloned by PCR from cDNA into pET30a (BamH I / HindIII); also called rSWP1; source: E. coli Rosetta, pET30a, purified (Ni-NTA)
T3 sequence (B3STN5 20-278): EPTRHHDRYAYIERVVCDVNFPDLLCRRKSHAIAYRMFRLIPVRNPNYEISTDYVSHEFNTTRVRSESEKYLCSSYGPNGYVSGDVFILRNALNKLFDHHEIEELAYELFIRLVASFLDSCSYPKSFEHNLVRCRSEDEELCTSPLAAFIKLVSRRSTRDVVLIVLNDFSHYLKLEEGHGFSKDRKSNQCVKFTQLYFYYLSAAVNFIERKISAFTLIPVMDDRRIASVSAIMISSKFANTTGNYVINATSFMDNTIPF

T2 sequence (B3STN5 20-278): as above
T1 sequence (B3STN5 20-278): as above

Binder	binding result [2]	binding result [3]	also measured
B1			binding result [1]: binds
B2			binding result [1]: binds
B3	binds		
B4	binds		
B5	binds		
B6		binds	
B7		binds	
B8		binds	
